{"source": "paper PMC8861115", "about": "“Characterization and structural analyses of a novel glycosyltransferase acting on the β-1,2-glucosidic linkages” (The Journal of Biological Chemistry, 2022)", "details_in_all_cases": "acceptor, donor Sop2 fixed 1 mM, pH 5.0, 37 °C", "key": {"[1]": {"substrate": "CO[C@H]1O[C@H](CO)[C@@H](O)[C@H](O)[C@H]1O", "test": "hexokinase/G6PDH thio-NAD+ coupled glucose release", "format": "biochemical, Ignavibacterium album", "source_text": "(§1) hexokinase/G6PDH thio-NAD+ coupled glucose release on IaSGT (IALB_1185)"}, "[2]": {"substrate": "CO[C@@H]1O[C@H](CO)[C@@H](O)[C@H](O)[C@H]1O", "test": "hexokinase/G6PDH thio-NAD+ coupled glucose release", "format": "biochemical, Ignavibacterium album", "source_text": "as §1"}, "[3]": {"substrate": "CCO[C@H]1O[C@H](CO)[C@@H](O)[C@H](O)[C@H]1O", "test": "hexokinase/G6PDH thio-NAD+ coupled glucose release", "format": "biochemical, Ignavibacterium album", "source_text": "as §1"}, "[4]": {"substrate": "OC[C@H]1O[C@H](Oc2ccc3ccccc3c2)[C@H](O)[C@@H](O)[C@@H]1O", "test": "hexokinase/G6PDH thio-NAD+ coupled glucose release", "format": "biochemical, Ignavibacterium album", "source_text": "as §1"}, "[5]": {"substrate": "O=c1ccc2cc(O[C@@H]3O[C@H](CO)[C@@H](O)[C@H](O)[C@H]3O)c(O)cc2o1", "test": "hexokinase/G6PDH thio-NAD+ coupled glucose release", "format": "biochemical, Ignavibacterium album", "source_text": "as §1"}, "[6]": {"substrate": "OC[C@H]1O[C@H](Oc2ccc(O)cc2)[C@H](O)[C@@H](O)[C@@H]1O", "test": "hexokinase/G6PDH thio-NAD+ coupled glucose release", "format": "biochemical, Ignavibacterium album", "source_text": "as §1"}, "[7]": {"substrate": "OC[C@H]1O[C@H](Oc2ccccc2)[C@H](O)[C@@H](O)[C@@H]1O", "test": "hexokinase/G6PDH thio-NAD+ coupled glucose release", "format": "biochemical, Ignavibacterium album", "source_text": "as §1"}, "[8]": {"substrate": "OCc1ccccc1O[C@@H]1O[C@H](CO)[C@@H](O)[C@H](O)[C@H]1O", "test": "hexokinase/G6PDH thio-NAD+ coupled glucose release", "format": "biochemical, Ignavibacterium album", "source_text": "as §1"}, "[9]": {"substrate": "OC[C@H]1O[C@H](OCc2ccccc2)[C@H](O)[C@@H](O)[C@@H]1O", "test": "hexokinase/G6PDH thio-NAD+ coupled glucose release", "format": "biochemical, Ignavibacterium album", "source_text": "as §1"}, "[10]": {"substrate": "OCc1ccc(O[C@@H]2O[C@H](CO)[C@@H](O)[C@H](O)[C@H]2O)cc1", "test": "hexokinase/G6PDH thio-NAD+ coupled glucose release", "format": "biochemical, Ignavibacterium album", "source_text": "as §1"}, "[11]": {"substrate": "OC[C@H]1O[C@@H](Oc2ccc(O)cc2)[C@H](O)[C@@H](O)[C@@H]1O", "test": "hexokinase/G6PDH thio-NAD+ coupled glucose release", "format": "biochemical, Ignavibacterium album", "source_text": "as §1"}, "[12]": {"substrate": "O=[N+]([O-])c1ccc(O[C@H]2O[C@H](CO)[C@@H](O)[C@H](O)[C@H]2O)cc1", "test": "purified protein"}, "[13]": {"substrate": "O=[N+]([O-])c1ccc(O[C@@H]2O[C@H](CO)[C@@H](O)[C@H](O)[C@H]2O)cc1", "test": "purified protein"}}}
{"protein": "IaSGT (IALB_1185) (Ignavibacterium album JCM 16511) (protein, full length (no N-terminal signal peptide), his6-tag fusion from pET30a(+) NdeI/XhoI, E. coli BL21(DE3); homodimer) MKPHNSEKYFVKNGQPHFLISGEVHYFRINPKLWRNHLQLLKQTGADTVSTYIPWDWHEIEEDDFDFEGKTHPARNLIRFIKLCKEENLDLIVKPGPYILAEYENQGLPSWLLKKLSKNAFALDENGNVISPDLVSYLSDEFLEYTFKWYDKVMPIISKHQKEHYGPITMMQLCNEIGVFQWLSGKSDYNPKVINLYKEFIIQRYKTIEKLNSVYSTNYNSFDDLKAPSGKIKLRSDYCAYFDFHLFFREYYNKYISILKNKIRSFGINIKLTHNIPGWIYGNASELPMLISTYSEIMKNHPDIIFGLDHIPEFVSFRNAHSDLACNKILEAMQPEAPVWAAEFQAGTREHHVKAYAKDLETFYIASLAHGIKGFNYYMFSQGINPEGKGFYGKTFYFQTALDAASNKLALYDSIKKVNRFIRKEQKDLLRTNVNSEICVGFYKPYFFTELISSQLLKEKKLNVEELGLYIDPRFLREEILFNGLLRGLQTLNYNYDVVDLENCDLKSLTAYKQLWITSAEFMDAETQNLLSEFVLNGGNLILYPAVPTLDNYLNRCEILKNNFGIEFITKDSSHKVSAFGIEDVFTAFSKKQIYNDTNSKPIAFTQENEICGIRKKIGKGELTILGFAFGYTSDEHLELIDKLVKLNKIKRELFVSDKDIQFVVRENNKSRYIFFLNYHNERKTFNYRKSSELKKKKSEEISIAPFSYKVIKENK", "values": [{"measurement": "Km", "setting": "[1]", "value": "200 ± 30", "unit": "µM"}, {"measurement": "kcat", "setting": "[1]", "value": "1 ± 0.1", "unit": "s⁻¹"}, {"measurement": "kcat/Km", "setting": "[1]", "value": "4900 ± 400", "unit": "M⁻¹ s⁻¹"}, {"measurement": "Km", "setting": "[2]", "value": "130 ± 30", "unit": "µM"}, {"measurement": "kcat", "setting": "[2]", "value": "1.9 ± 0.2", "unit": "s⁻¹"}, {"measurement": "kcat/Km", "setting": "[2]", "value": "14000 ± 2000", "unit": "M⁻¹ s⁻¹"}, {"measurement": "Km", "setting": "[3]", "value": "44 ± 5", "unit": "µM"}, {"measurement": "kcat", "setting": "[3]", "value": "0.55 ± 0.02", "unit": "s⁻¹"}, {"measurement": "kcat/Km", "setting": "[3]", "value": "13000 ± 1000", "unit": "M⁻¹ s⁻¹"}, {"measurement": "Km", "setting": "[4]", "value": "150 ± 30", "unit": "µM"}, {"measurement": "kcat", "setting": "[4]", "value": "3.9 ± 0.3", "unit": "s⁻¹"}, {"measurement": "kcat/Km", "setting": "[4]", "value": "26000 ± 3000", "unit": "M⁻¹ s⁻¹"}, {"measurement": "Km", "setting": "[5]", "value": "45 ± 6", "unit": "µM"}, {"measurement": "kcat", "setting": "[5]", "value": "1.3 ± 0.1", "unit": "s⁻¹"}, {"measurement": "kcat/Km", "setting": "[5]", "value": "29000 ± 1000", "unit": "M⁻¹ s⁻¹"}, {"measurement": "Km", "setting": "[6]", "value": "380 ± 50", "unit": "µM"}, {"measurement": "kcat", "setting": "[6]", "value": "8.7 ± 0.6", "unit": "s⁻¹"}, {"measurement": "kcat/Km", "setting": "[6]", "value": "23000 ± 2000", "unit": "M⁻¹ s⁻¹"}, {"measurement": "Km", "setting": "[7]", "value": "220 ± 30", "unit": "µM"}, {"measurement": "kcat", "setting": "[7]", "value": "1.8 ± 0.2", "unit": "s⁻¹"}, {"measurement": "kcat/Km", "setting": "[7]", "value": "8100 ± 600", "unit": "M⁻¹ s⁻¹"}, {"measurement": "Km", "setting": "[8]", "value": "21 ± 3", "unit": "µM"}, {"measurement": "kcat", "setting": "[8]", "value": "0.88 ± 0.03", "unit": "s⁻¹"}, {"measurement": "kcat/Km", "setting": "[8]", "value": "43000 ± 1000", "unit": "M⁻¹ s⁻¹"}, {"measurement": "Km", "setting": "[9]", "value": "96 ± 11", "unit": "µM"}, {"measurement": "kcat", "setting": "[9]", "value": "0.86 ± 0.05", "unit": "s⁻¹"}, {"measurement": "kcat/Km", "setting": "[9]", "value": "9000 ± 700", "unit": "M⁻¹ s⁻¹"}, {"measurement": "Km", "setting": "[10]", "value": "42 ± 4", "unit": "µM"}, {"measurement": "kcat", "setting": "[10]", "value": "0.49 ± 0.02", "unit": "s⁻¹"}, {"measurement": "kcat/Km", "setting": "[10]", "value": "12000 ± 1000", "unit": "M⁻¹ s⁻¹"}, {"measurement": "Km", "setting": "[11]", "value": "26 ± 3", "unit": "µM"}, {"measurement": "kcat", "setting": "[11]", "value": "1.4 ± 0.1", "unit": "s⁻¹"}, {"measurement": "kcat/Km", "setting": "[11]", "value": "55000 ± 5000", "unit": "M⁻¹ s⁻¹"}, {"measurement": "Km", "setting": "[12]", "value": "130 ± 20", "unit": "µM"}, {"measurement": "kcat", "setting": "[12]", "value": 5, "unit": "s⁻¹"}, {"measurement": "kcat/Km", "setting": "[12]", "value": 39000, "unit": "M⁻¹ s⁻¹"}, {"measurement": "Km", "setting": "[13]", "value": "40 ± 4", "unit": "µM"}, {"measurement": "kcat", "setting": "[13]", "value": 0.46, "unit": "s⁻¹"}, {"measurement": "kcat/Km", "setting": "[13]", "value": 12000, "unit": "M⁻¹ s⁻¹"}]}
